From PMC2819980

Experiments:
[1] = test system: Nc1ccn([C@@H]2O[C@H](COP(=O)(O)OP(=O)(O)CCCNO)[C@@H](O)[C@H]2O)c(=O)n1; assay: steady-state kinetics; assay type: biochemical, Streptomyces rubellomurinus
[2] = test system: NCCCP(=O)(O)OP(=O)(O)OC[C@H]1O[C@@H](n2ccc(N)nc2=O)[C@H](O)[C@@H]1O; assay: steady-state kinetics; assay type: biochemical, Streptomyces rubellomurinus

Q: What does the source list for FrbF (Streptomyces rubellomurinus)?
A: Km [1]: 52.3 ± 3.0 µM; kcat [1]: 0.034 ± 0.00717 s⁻¹; kcat/Km [1]: 650 M⁻¹ s⁻¹; Km [2]: 35.2 ± 3.2 µM; kcat [2]: 0.0577 ± 0.00267 s⁻¹; kcat/Km [2]: 1630 M⁻¹ s⁻¹
